Laboratory results taken from patent US20230220098A1, “THERAPEUTIC DRUG FOR POLYCYTHEMIA” (PERSEUS PROTEOMICS INC., priority 2019, published 2023).

What was measured:
Tf-TfR binding = molecular target: T1, Tf-TfR binding (Homo sapiens, UniProt P02786); experiment: Tf-TfR binding inhibition ELISA (HRP-labeled Tf on solid-phase sTfR); details: dose 100 ng/mL; FIG. 3
T1 construct: A human TfR extracellular domain (the amino acids at positions 89 to 760); made in house; host or cells: Expi293 cells
Description: The Tf-TfR binding inhibitory activity of an antibody can be measured according to the method described in the after-mentioned “Example 2(2): Comparison between TfR436 antibody and antibodies of other companies in terms of Tf-TfR binding inhibition.” A TfR solution is dispensed into a substrate (a 96-well plate, etc.) and is then left at rest to obtain a solid phase, and thereafter, blocking is carried out. Subsequently, an HRP-labeled Tf solution is dispensed into the substrate, and an antibody is further added thereto, so that they are allowed to react with each other at room temperature. Thereafter, the substrate is washed, and a coloring reagent (TMB, etc.) is then added thereto, so that they are allowed to react with each other. After that, the absorbance is measured using a plate reader. By performing the above-described operations, the Tf-TfR binding inhibitory activity of the antibody can be evaluated.
The sTfR described in Example 1 was adjusted to a concentration of 5.0 μg/mL by addition of PBST, and the diluted solution was then dispensed into MaxiSorp 96-well plate (Nunc) in an amount of 100 μL/well. Thereafter, it was left at rest at 4° C. overnight to obtain a solid phase. […] Thereafter, the absorbance at 450 nm (ref. 620 nm) was measured.

[1] = tested on: soluble wild-type TfR (sTfR) and TfR mutant fragments (MF1 to MF7); experiment: ELISA reactivity with soluble wild-type TfR and TfR mutant fragments (binding site identification); design: species or system human; details: TfR436 1 ug/mL; MF5 (positions 629, 630 and 633 substituted); FIG. 2
Description: (§1) A neomycin resistance gene and a DHFR gene were incorporated into the expression vector pCAGGS (Non-Patent Document 2: Niwa et al. 1991), and thereafter, the synthesized genes were each inserted into the multicloning site of the obtained expression vector, so as to produce a pCAGGS-Neo-DHFR-sTFR-myc-his expression plasmid. Using Expifectamine (Invitrogen), the Expi293 cells (Invitrogen) were transfected with the above-described plasmid, and were then cultured at 37° C. in 8% CO2 at 135 rpm for 5 days. Thereafter, a culture supernatant was recovered by centrifugation. A HisTrapHP (GE Healthcare) column was connected with AKTA prime (GE Healthcare), and sTfR or MF1 to MF7 were then purified using 20 mM Imidazole/DPBS as a binding buffer and 500 mM Imidazole/DPBS as an elution buffer. The eluted protein was subjected to buffer exchange with 30 mM HEPES, 5% trehalose, pH 7.2, by using a Zeba spin column (Thermo scientific).
(§2) The thus purified sTfR or MF1 to MF7 were diluted with PBST (Phosphate Buffered Saline with Tween 20, TaKaRa), and the diluted solutions were prepared at 7 stages by 3-fold dilution from 600 ng/mL. […] Thereafter, the absorbance at 450 nm (ref. 620 nm) was measured using a plate reader.

[2] = molecular target: T2, soluble wild-type TfR (sTfR) and TfR mutant fragments (MF1 to MF7) (Homo sapiens, UniProt P02786); experiment: as above; details: suggested from mutant fragment reactivity
T2 construct: A human TfR extracellular domain (the amino acids at positions 89 to 760); made in house; host or cells: Expi293 cells
Description: as §1, §2

T2 sequence (P02786 89-760, change not shown): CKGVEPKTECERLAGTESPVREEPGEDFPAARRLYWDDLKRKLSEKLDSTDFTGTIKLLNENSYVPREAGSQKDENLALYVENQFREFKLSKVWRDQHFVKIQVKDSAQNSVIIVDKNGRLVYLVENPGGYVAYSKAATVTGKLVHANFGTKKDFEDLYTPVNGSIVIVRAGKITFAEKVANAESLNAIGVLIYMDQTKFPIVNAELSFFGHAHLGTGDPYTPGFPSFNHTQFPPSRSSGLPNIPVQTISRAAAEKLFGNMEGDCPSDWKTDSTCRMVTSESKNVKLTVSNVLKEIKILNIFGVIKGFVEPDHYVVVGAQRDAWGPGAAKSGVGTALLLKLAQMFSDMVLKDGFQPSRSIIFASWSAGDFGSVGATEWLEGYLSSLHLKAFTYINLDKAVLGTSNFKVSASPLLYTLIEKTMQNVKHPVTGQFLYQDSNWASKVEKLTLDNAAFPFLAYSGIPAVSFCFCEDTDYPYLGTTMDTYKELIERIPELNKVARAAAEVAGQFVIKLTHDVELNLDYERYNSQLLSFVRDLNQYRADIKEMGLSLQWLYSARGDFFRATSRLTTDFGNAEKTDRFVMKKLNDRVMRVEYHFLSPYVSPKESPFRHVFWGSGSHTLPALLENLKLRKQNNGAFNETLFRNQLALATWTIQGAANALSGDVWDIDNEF
T1 sequence (P02786 89-760): as the sequence (P02786 89-760, change not shown) above

B1: TfR436: anti-human transferrin receptor antibody, VH SEQ ID NO: 7 and VL SEQ ID NO: 8, described in WO2014/073641; called PPMX-T003 in Tables 3 and 4 (antibody, listed as Homo sapiens, V domains shown)
VH: DVQLVQSGGGVVQPGRSLRLSCAASGFPFKSYGMHWVRQAPGKGLEWVAVISYDGSNKYYADSVKGRFTISRDNSKNTLYLQMNSLRGEDTAVYYCARDSNFWSGYYSPVDVWGQGTTVTVSS
VL: NFMLTQPHSVSESPGKTVTISCTRSSGSIASNSVQWYQQRPGSAPITVIYEDTQRPSGVPDRFSGSIDSSSNSASLTISGLQTEDEADYYCQSYDSAYHWVFGGGTKLAVL
inhibition of the binding of Tf-TfR (Tf-TfR binding): completely inhibited
reactivity with TfR mutant fragment MF5 [1]: a reduction in the reactivity
epitope recognized [2]: amino acids at positions 629 to 633 of TfR
